{"source": "paper PMC7768477", "about": "(Antibodies, 2020)", "binders": {"B1": {"name": "sdAb E10 (VHH)", "VHH": "DVQLQASGGGLVQAGASLRLSCAASGFTYTMGWFRQAPGQEREFVAAIARSGGTTYYTDSVKGRFTISRDNAKKTVFLQLNSLKPEDTAVYYCAADALPYSAQSMSTRNPGYWGQGTQVTVSS", "notes": "source: E. coli Tuner (DE3), periplasmic, purified (osmotic shock, IMAC, gel filtration)"}, "B2": {"name": "sdAb G11 (VHH)", "VHH": "DVQLQASGGGLVQAGDSLTLSCAASGRTVSPYGVGWFRQAPGREREFVAALSRSGTFTAYADSVKGRFTISRDNAKNTVYLQMNSLKPDDTAVYHCAARSASSYYSTYRKEDDYHYWGQGTQVTVSS", "notes": "as for B1"}, "B3": {"name": "sdAb B5 (VHH)", "VHH": "EVQLQASGGGLAQPGGSLRLSCAASGFTLVYYGIGWFRQAPGKEREGVSCISSNDGSTYYADSVKGRFTISRDAAKNTVYLQMNSLKPEDTAVYYCATELGNTHRGSFFPNRRVERCRTDDFASWGQGTQVTVSS", "notes": "as for B1"}, "B4": {"name": "sdAb E11 (VHH)", "VHH": "B3 VHH with S57T, A74N, F108Y, N111K, R112Q, R118H, D120G", "notes": "as for B1"}, "B5": {"name": "sdAb H6 (VHH)", "VHH": "B3 VHH with E1D, L11V, A12V, A23V, E115K", "notes": "also called clone H6; Bt-H6; source: E. coli Tuner (DE3), periplasmic, purified (osmotic shock, IMAC, gel filtration)"}, "B6": {"name": "sdAb F3 (VHH)", "VHH": "B3 VHH with E1D, A12V, N54Y, S57T, A74N, F108Y, N111K, R112Q, R118H, D120G", "notes": "as for B1"}, "B7": {"name": "sdAb C7 (VHH)", "VHH": "B3 VHH with A12V, A23V, V79M", "notes": "as for B1"}, "B8": {"name": "sdAb E1 (VHH)", "VHH": "DVQLQASGGGLVQTGGSLRLSCENSGRALRIMGWFRQAPGKEREFVATINRNGESTYYSDSVKGRFTISRDNNKNTVYLQMNNLKPEDTGVYNCAADRPGPTQIKTRADDYDYWGEGTQVTVSS", "notes": "also called clone E1; source: E. coli Tuner (DE3), periplasmic, purified (osmotic shock, IMAC, gel filtration)"}}, "note": "Changes are numbered by the printed parent chain.", "data": [{"biological_target": "T1, Lassa NPc (C-terminal portion of NP encoding residues 341-569) (Lassa virus lineage IV, strain Josiah, UniProt P13699)", "T1 construct": "source: bought: Zalgen (recombinant)", "T1 sequence (P13699 341-569)": "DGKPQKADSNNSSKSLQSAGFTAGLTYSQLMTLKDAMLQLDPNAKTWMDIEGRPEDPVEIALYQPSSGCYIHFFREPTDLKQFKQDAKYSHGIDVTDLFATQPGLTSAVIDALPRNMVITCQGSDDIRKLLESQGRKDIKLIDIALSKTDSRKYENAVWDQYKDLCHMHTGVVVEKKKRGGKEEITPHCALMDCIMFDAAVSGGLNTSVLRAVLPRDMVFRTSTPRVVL", "experiment": "SPR; ProteOn XPR36; […] (20 ug/mL in 10 mM sodium acetate pH 5.0); […]", "details": "both partners purified", "values": [{"binder": "B1", "binding result": "no binding"}, {"binder": "B2", "binding result": "no binding"}, {"binder": "B3", "binding result": "no binding"}, {"binder": "B4", "binding result": "no binding"}, {"binder": "B5", "binding result": "no binding"}, {"binder": "B6", "binding result": "no binding"}, {"binder": "B7", "binding result": "no binding"}, {"binder": "B8", "binding result": "no binding"}]}, {"biological_target": "T2, Lassa NPn (N-terminal portion of NP encoding residues 1-340) (Lassa virus lineage IV, strain Josiah, UniProt P13699)", "T2 construct": "source: bought: Zalgen (recombinant)", "T2 sequence (P13699 1-340)": "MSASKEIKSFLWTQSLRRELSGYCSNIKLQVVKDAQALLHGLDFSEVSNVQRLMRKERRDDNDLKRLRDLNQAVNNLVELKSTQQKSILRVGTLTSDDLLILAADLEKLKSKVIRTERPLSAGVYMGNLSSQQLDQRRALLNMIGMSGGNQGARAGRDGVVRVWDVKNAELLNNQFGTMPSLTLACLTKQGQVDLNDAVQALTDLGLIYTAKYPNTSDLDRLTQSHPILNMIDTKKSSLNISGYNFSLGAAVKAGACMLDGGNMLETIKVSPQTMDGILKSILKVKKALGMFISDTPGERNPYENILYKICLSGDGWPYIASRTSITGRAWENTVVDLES", "experiment": "SPR; ProteOn XPR36; […] (20 ug/mL in 10 mM sodium acetate pH 5.0); […]; Langmuir model", "details": "both partners purified", "units": {"Kd": "nM", "koff": "s⁻¹", "kon": "M⁻¹ s⁻¹"}, "values": [{"binder": "B1", "Kd": 69, "koff": 0.13, "kon": "1.9e+06"}, {"binder": "B2", "Kd": 184, "koff": 0.07, "kon": 380000}, {"binder": "B3", "Kd": 19, "koff": 0.0061, "kon": 320000}, {"binder": "B4", "Kd": 57, "koff": 0.0076, "kon": 150000}, {"binder": "B5", "Kd": 9.3, "koff": 0.0057, "kon": 610000}, {"binder": "B6", "Kd": 7.5, "koff": 0.003, "kon": 400000}, {"binder": "B7", "Kd": 7.5, "koff": 0.0038, "kon": 510000}, {"binder": "B8", "binding result": "no binding"}]}]}
